Reference: IntAct's records for PubMed 16367866

B1: Translocated intimin receptor Tir (Escherichia coli O127:H6 (strain E2348/69 / EPEC)), B7UM99 (parent)
chain: MPIGNLGNNVNGNHLIPPAPPLPSQTDGAARGGTGHLISSTGALGSRSLFSPLRNSMADSVDSRDIPGLPTNPSRLAAATSETCLLGGFEVLHDKGPLDILNTQIGPSAFRVEVQADGTHAAIGEKNGLEVSVTLSPQEWSSLQSIDTEGKNRFVFTGGRGGSGHPMVTVASDIAEARTKILAKLDPDNHGGRQPKDVDTRSVGVGSASGIDDGVVSETHTSTTNSSVRSDPKFWVSVGAIAAGLAGLAATGIAQALALTPEPDDPTTTDPDQAANAAESATKDQLTQEAFKNPENQKVNIDANGNAIPSGELKDDIVEQIAQQAKEAGEVARQQAVESNAQAQQRYEDQHARRQEELQLSSGIGYGLSSALIVAGGIGAGVTTALHRRNQPAEQTTTTTTHTVVQQQTGGNTPAQGGTDATRAEDASLNRRDSQGSVASTHWSDSSSEVVNPYAEVGGARNSLSAHQPEEHIYDEVAADPGYSVIQNFSGSGPVTGRLIGTPGQGIQSTYALLANSGGLRLGMGGLTSGGESAVSSVNAAPTPGPVRFV
partner: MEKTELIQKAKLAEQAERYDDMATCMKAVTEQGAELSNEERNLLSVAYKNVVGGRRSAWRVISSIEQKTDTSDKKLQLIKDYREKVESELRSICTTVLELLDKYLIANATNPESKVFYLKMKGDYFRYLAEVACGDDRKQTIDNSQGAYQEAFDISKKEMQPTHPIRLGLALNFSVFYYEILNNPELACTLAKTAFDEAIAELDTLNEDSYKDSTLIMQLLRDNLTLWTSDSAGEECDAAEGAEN

Variants of: B1
Conditions: with 1433t_human YWHAQ

Variant | effect of a mutation on the interaction
S465A | with no effect
S51A | with no effect
S434A | with no effect
